The supplement of paper PMC9732359
± gives the uncertainty stated by the source.

Experiment: protein stability index of a GFP-peptide fusion (yeast GPS) (PSI 1-4); higher = more stable; sorted into four equal gates, so the index is relative within each strain
In short: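 Tiled 17-residue yeast protein peptides were fused downstream of GFP in a plasmid that also expresses Cherry, and the pooled library was carried in yeast. Mid-log cultures in leucine-free medium were sorted into four equal gates by GFP/Cherry fluorescence ratio, and plasmids from each gate were PCR-amplified and Illumina-sequenced, with reads assigned to strains by barcodes. The protein stability index for each peptide was each gate's read frequency times its gate number, summed.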

| Sequence | protein stability index (doa10∆) | protein stability index (pdr5∆) | protein stability index (san1∆) | protein stability index (ubr1∆) |
| --- | --- | --- | --- | --- |
| EELKDSEINEILARNDE [SNF2] | 3.2 ± 0.18 | 3.55 ± 0.12 | 2.66 ± 0.13 | 3.32 ± 0.089 |
| INQEKPVKLDENSANST [SIR4] | – | – | 3.51 ± 0.18 | – |
| MVVNGPIPDARNAALRA [SCL1] | 2.38 ± 0.14 | 2.72 ± 0.11 | 2.36 ± 0.13 | 2.35 ± 0.091 |
| VAARAEILRIHSRKMNL [RPT6] | 2.59 ± 0.056 | 2.53 ± 0.054 | 2.5 ± 0.081 | 2.64 ± 0.068 |
| QLCQITCQILESGEDEA [RRP46] | 2.25 ± 0.19 | 1.98 ± 0.082 | 1.72 ± 0.09 | 1.99 ± 0.061 |
| SKALYPDYYMIIKYPVA [SNF2] | 2.37 ± 0.039 | 2.31 ± 0.038 | 2.02 ± 0.054 | 2.53 ± 0.031 |
| EAHPTKVKNFGVWVRYD [RPL20A] | 3.02 ± 0.087 | 2.96 ± 0.056 | 3.01 ± 0.044 | 2.9 ± 0.047 |
| RAGGAAASLIMPFLDNQ [PRE7] | – | – | – | 1.11 ± 0.11 |
| EVLQGLLQGGAKVVVTT [FAS2] | 3.22 ± 0.092 | 2.91 ± 0.076 | 2.29 ± 0.076 | 1.61 ± 0.088 |
| TLPEKKQFDSIFNSNKA [SIR4] | 2.71 ± 0.042 | 2.77 ± 0.045 | 2.82 ± 0.034 | 2.8 ± 0.035 |
| GAIIGWTRGTGLMSANN [FAS2] | 2.89 ± 0.087 | 2.83 ± 0.083 | 3.08 ± 0.091 | 2.78 ± 0.29 |
| EAAFRNIKTIAETLAEE [RPS5] | 2.79 ± 0.084 | 3.28 ± 0.076 | 3.25 ± 0.053 | 2.84 ± 0.046 |
| GDKDTRADIVRNIILEA [ISW2] | 2.1 ± 0.1 | 2.41 ± 0.06 | 2.09 ± 0.099 | 2.56 ± 0.11 |
| MATPSFGNSSPQLTFTH [YML103C/NUP188] | 2.75 ± 0.12 | 2.1 ± 0.068 | 2.83 ± 0.067 | 2.73 ± 0.062 |
| LLGNCYSLRLINKEIFH [SRB8] | 1.79 ± 0.069 | 1.46 ± 0.094 | 1.46 ± 0.17 | 1.36 ± 0.073 |
| LHNIWSNGLLSIVLLLL [YML103C/NUP188] | 1.38 ± 0.069 | 1.34 ± 0.059 | 1.5 ± 0.14 | 1.54 ± 0.12 |
| SVEAYLVSLFEDTNLAA [HHT1] | – | 2.86 ± 0.26 | 2.59 ± 0.15 | 3.06 ± 0.14 |
| YIKSMDLISKKTKTSLL [RPR2] | 2.96 ± 0.081 | 2.66 ± 0.079 | 2.78 ± 0.075 | 2.79 ± 0.051 |
| PRVKGFKMNEIVPLHSP [SEC65] | 2.89 ± 0.087 | 3.01 ± 0.12 | 3.09 ± 0.079 | 2.87 ± 0.066 |
| SNRLHPPDIHPNLGPQL [GRR1] | 3.12 ± 0.074 | 3.09 ± 0.059 | 3.01 ± 0.054 | 2.98 ± 0.049 |
| SVPIWVDTSTELESMLE [RRP6] | 3.07 ± 0.12 | 3.28 ± 0.16 | 3.06 ± 0.063 | 2.96 ± 0.085 |
| EKFSSFIESIVVDFKNK [SNF12] | 2.69 ± 0.065 | 2.84 ± 0.078 | 2.74 ± 0.081 | 2.77 ± 0.061 |
| PRYTYHTIFSDVCKTRF [YML031W/NDC1] | 2.77 ± 0.055 | 3 ± 0.051 | 2.62 ± 0.035 | 2.82 ± 0.055 |
| FDEKTIEEMLEIISGYA [RPC17] | 1.36 ± 0.082 | 2.69 ± 0.14 | 2.07 ± 0.14 | 1.75 ± 0.09 |
| LQQKQRDLILKKGEYAR [SMC3] | 2.3 ± 0.12 | 2.42 ± 0.14 | 2.5 ± 0.29 | 2.71 ± 0.072 |
| TKKKSKFMTNSTAFVPT [ARP9] | 2.65 ± 0.054 | 2.79 ± 0.045 | 2.47 ± 0.058 | 2.77 ± 0.038 |
| HSFEDAHTPMLQMYSKI [FAS1] | 2.75 ± 0.06 | 3.03 ± 0.086 | 2.82 ± 0.096 | 2.84 ± 0.076 |

| Sequence | protein stability index (doa10∆) | protein stability index (pdr5∆) | protein stability index (san1∆) | protein stability index (ubr1∆) |
| --- | --- | --- | --- | --- |
| LFGAKPQNTTATTGGLF [YGR119C/NUP57] | 2.7 ± 0.084 | 3.06 ± 0.076 | 2.97 ± 0.12 | 2.59 ± 0.089 |
| EINNLIQLPASLAATYS [ARP9] | 1.59 ± 0.063 | 1.87 ± 0.045 | 1.96 ± 0.07 | 1.65 ± 0.047 |
| TCDEIQNFENDFSLRYI [REC8] | 2.52 ± 0.14 | 2.12 ± 0.28 | 3.35 ± 0.15 | 2.88 ± 0.28 |
| KKINAKEKLIGWYHSGP [RPN8] | 2.91 ± 0.085 | 3.13 ± 0.096 | 3.33 ± 0.052 | 3.13 ± 0.06 |
| ENVGTRLLPINVNKKAL [MED11] | 2.87 ± 0.18 | 2.65 ± 0.13 | 2.89 ± 0.094 | 2.98 ± 0.22 |
| SYYELETIIFDSELNRA [RRI1] | 2.96 ± 0.11 | 3.13 ± 0.075 | 2.97 ± 0.056 | 2.93 ± 0.056 |
| FEDATREQHIDTICQSI [SNF5] | 2.88 ± 0.1 | 3.21 ± 0.15 | 3.26 ± 0.066 | 3.19 ± 0.08 |
| IIAELSFLKVDPDLGLD [YJL039C/NUP192] | 3.35 ± 0.091 | 3.26 ± 0.086 | 3.23 ± 0.1 | 3 ± 0.095 |
| CDLSSKFNKSKAKFTSL [YCS4] | 2.72 ± 0.055 | 2.79 ± 0.07 | 2.98 ± 0.05 | 2.64 ± 0.037 |
| FQIEADFIGHNSNINTL [ASC1] | 2.1 ± 0.06 | 2.63 ± 0.049 | 2.35 ± 0.081 | 2.68 ± 0.043 |
| SNEEKEKIKMKLKQGQK [GAL11] | 2.96 ± 0.25 | 3.37 ± 0.12 | 3.04 ± 0.07 | – |
| IYAGYDDRYGYQLYTSN [PRE9] | 2.99 ± 0.16 | 2.14 ± 0.25 | 1.86 ± 0.17 | 2.34 ± 0.16 |
| AASALDEKEKQLAVANE [SIR4] | 2.92 ± 0.081 | 3.28 ± 0.072 | 3.3 ± 0.055 | 3.36 ± 0.073 |
| SPTESYSDIGGLESQIQ [RPT2] | 3.3 ± 0.14 | 3.53 ± 0.14 | 3.41 ± 0.06 | 3.29 ± 0.076 |
| ISSEKLLTLTNAANVPV [RPP1A] | 2.95 ± 0.091 | 2.9 ± 0.1 | 2.93 ± 0.065 | 3 ± 0.082 |
| IETIGHLITKEEIMHGL [RPN5] | 2.82 ± 0.089 | 3.31 ± 0.14 | 3.13 ± 0.079 | 2.97 ± 0.067 |
| PKNIEPPLTSQYSTRHD [SWI3] | 3.07 ± 0.048 | 3.02 ± 0.059 | 3.04 ± 0.041 | 3.03 ± 0.042 |
| DVLTLENIQEGTSLTIQ [CDC53] | 3.17 ± 0.1 | 3.22 ± 0.14 | 3.1 ± 0.056 | 3.14 ± 0.054 |
| LGSGSLAAMAVLESHWK [PUP1] | 3.24 ± 0.16 | 3.27 ± 0.14 | 2.64 ± 0.2 | 3.69 ± 0.18 |
| HFRAPSRILYKAIRGMV [RPL16B] | 2.19 ± 0.096 | 2.67 ± 0.059 | 2.14 ± 0.1 | 2.21 ± 0.062 |
| LNVQVWHIEETGEWFSS [ITC1] | 1.83 ± 0.051 | 2.03 ± 0.05 | 2.39 ± 0.059 | 2.41 ± 0.043 |
| LFKKFNNDFKLSIDKVL [RET1] | 1.66 ± 0.12 | 1.8 ± 0.11 | 2.15 ± 0.15 | 2.67 ± 0.093 |
| AGQNATVAVMSYSGYDI [RET1] | 1.32 ± 0.039 | 1.38 ± 0.045 | 1.33 ± 0.086 | 1.66 ± 0.036 |
| KNEETPQNEKPPAYALL [RPC25] | 2.27 ± 0.23 | – | 2.05 ± 0.14 | 2.74 ± 0.24 |
| LQSNSKLASTLEKISSS [SMC4] | 2.79 ± 0.04 | 2.52 ± 0.035 | 2.54 ± 0.037 | 2.53 ± 0.034 |
| GSKSASKQTPQPKAPRA [ISW2] | 3.08 ± 0.076 | 3.17 ± 0.12 | 2.76 ± 0.1 | 3.23 ± 0.08 |
